Measurements: IntAct's records for PubMed 16292983

B1: Ankyrin-2 (Homo sapiens), Q01484-2 (parent)
chain: MMNEDAAQKSDSGEKFNGSSQRRKRPKKSDSNASFLRAARAGNLDKVVEYLKGGIDINTCNQNGLNALHLAAKEGHVGLVQELLGRGSSVDSATKKGNTALHIASLAGQAEVVKVLVKEGANINAQSQNGFTPLYMAAQENHIDVVKYLLENGANQSTATEDGFTPLAVALQQGHNQAVAILLENDTKGKVRLPALHIAARKDDTKSAALLLQNDHNADVQSKMMVNRTTESGFTPLHIAAHYGNVNVATLLLNRGAAVDFTARNGITPLHVASKRGNTNMVKLLLDRGGQIDAKTRDGLTPLHCAARSGHDQVVELLLERGAPLLARTKNGLSPLHMAAQGDHVECVKHLLQHKAPVDDVTLDYLTALHVAAHCGHYRVTKLLLDKRANPNARALNGFTPLHIACKKNRIKVMELLVKYGASIQAITESGLTPIHVAAFMGHLNIVLLLLQNGASPDVTNIRGETALHMAARAGQVEVVRCLLRNGALVDARAREEQTPLHIASRLGKTEIVQLLLQHMAHPDAATTNGYTPLHISAREGQVDVASVLLEAGAAHSLATKKGFTPLHVAAKYGSLDVAKLLLQRRAAADSAGKNGLTPLHVAAHYDNQKVALLLLEKGASPHATAKNGYTPLHIAAKKNQMQIASTLLNYGAETNIVTKQGVTPLHLASQEGHTDMVTLLLDKGANIHMSTKSGLTSLHLAAQEDKVNVADILTKHGADQDAHTKLGYTPLIVACHYGNVKMVNFLLKQGANVNAKTKNGYTPLHQAAQQGHTHIINVLLQHGAKPNATTANGNTALAIAKRLGYISVVDTLKVVTEEVTTTTTTITEKHKLNVPETMTEVLDVSDEEGDDTMTGDGGEYLRPEDLKELGDDSLPSSQFLDGMNYLRYSLEGGRSDSLRSFSSDRSHTLSHASYLRDSAVMDDSVVIPSHQVSTLAKEAERNSYRLSWGTENLDNVALSSSPIHSGFLVSFMVDARGGAMRGCRHNGLRIIIPPRKCTAPTRVTCRLVKRHRLATMPPMVEGEGLASRLIEVGPSGAQFLGKLHLPTAPPPLNEGESLVSRILQLGPPGTKFLGPVIVEIPHFAALRGKERELVVLRSENGDSWKEHFCDYTEDELNEILNGMDEVLDSPEDLEKKRICRIITRDFPQYFAVVSRIKQDSNLIGPEGGVLSSTVVPQVQAVFPEGALTKRIRVGLQAQPMHSELVKKILGNKATFSPIVTLEPRRRKFHKPITMTIPVPKASSDVMLNGFGGDAPTLRLLCSITGGTTPAQWEDITGTTPLTFVNECVSFTTNVSARFWLIDCRQIQESVTFASQVYREIICVPYMAKFVVFAKSHDPIEARLRCFCMTDDKVDKTLEQQENFAEVARSRDVEVLEGKPIYVDCFGNLVPLTKSGQHHIFSFFAFKENRLPLFVKVRDTTQEPCGRLSFMKEPKSTRGLVHQAICNLNITLPIYTKESESDQEQEEEIDMTSEKNPQDEQERIEERLAYIADHLGFSWTELARELDFTEEQIHQIRIENPNSLQDQSHALLKYWLERDGKHATDTNLVECLTKINRMDIVHLMETNTEPLQERISHSYAEIEQTITLDHSEGFSVLQEELCTAQHKQKEEQAVSKESETCDHPPIVSEEDISVGYSTFQDGVPKTEGDSSATALFPQTHKEQVQQDFSGKMQDLPEESSLEYQQEYFVTTPGTETSETQKAMIVPSSPSKTPEEVSTPAEEEKLYLQTPTSSERGGSPIIQEPEEPSEHREESSPRKTSLVIVESADNQPETCERLDEDAAFEKGDDMPEIPPETVTEEEYIDEHGHTVVKKVTRKIIRRYVSSEGTEKEEIMVQGMPQEPVNIEEGDGYSKVIKRVVLKSDTEQSEDNNE

Variants of: B1
Conditions: with nac1_human SLC8A1, P32418

Row | effect of a mutation on the interaction | Variant
1 | disrupting interaction | E1458G
